Experiment: soluble on expression in E. coli; label from the status in PepcDB or PDB records

Row | Sequence | soluble on expression in E. coli
1 | MGHHHHHHSHMDPDTFTFNFNNDPLVLRRRQTYLCYEVERLDNGWMVLMDQHMGFLCNEAKNLLCGFYGRHADWRFLDLVPSLQLDPAQIYRVTWFISWSPCFSWGCAGEVRAFLQENTHVRLPIFAARIYDYDPLYKEALQMLRDAGAQVSIMTYDEFEYCWDTFVYRQGCPFQPWDGLEEHSQALSGRLRAILQNQGN | not soluble
2 | MSVTVDDKDVSLNMIRPFEILTLPIPAGVAGKSLVWRFINDYGAISQPLKKNL | not soluble
3 | MAHHHHHHMSLNLAEAADERSQREMEKYLVERVAGQGTFGTVQLAREKNTGVNVAIKKVIQDPRFKNRELQIMQDLSRLRHPNIVLLKNYFYTVLGDHRHNDVYLNVVMEFVPDTLHRVCRAYYRRLASPPMILVKVFMYQLLRGIACLHLPAVNVCHRDIKPHNVLVDESTGDLKLCDFGSAKKLSPSEPNVAYICSRYYRAPELIFGNQYYSTAVDVWSVGCIFAEMLLGEPIFCGENTSGQLREIVRVLGRPSREELHKLSTSNVELNVPTNKSTPWEDVFKRPLPAEVYDLCAKIFKYLPEQRITPLEAICHPFFDELHDATVKLPSGNALPAHLFTFLPEEINEMTEAQRSQLVQK | soluble
4 | MGSDKIHHHHHHMHYEHSRKGNHMIKINHLTITQNKDLRDLVSDLTMTIQDGEKVAIIGEEGNGKSTLLKILMGEALSDFTIKGNIQSDYQSLAYIPQKVPEDLKKKTLHDYFFLDSIDLDYSILYRLAEELHFDSNRFASDQEIGNLSGGEALKIQLIHELAKPFEILFLDEPSNDLDLETVDWLKGQIQKTRQTVIFISHDEDFLSETADTIVHLRLVKHRKEAETLVEHLDYDSYSEQRKANFAKQSQQAANNQRAYDKTMEKHRRVKQNVETALRATKDSTAGRLLAKKMKTVLSQEKRYEKAAQSMTQKPLEEEQIQLFFSDIQPLPASKVLVQLEKENLSIDDRVLVQKLQLTVRGQEKIGIIGPNGVGKSTLLAKLQRLLNDKREISLGFMPQDYHKKLQLDLSPIAYLSKTGEKEELQKIQSHLASLNFSYPEMQHQIRSLSGGQQGKLLLLDLVLRKPNFLLLDEPTRNFSPTSQPQIRKLFATYPGGLITVSHDRRFLKEVCSIIYRMTEHGLKLVNLEDL | not soluble
5 | MACKRLVPGGEIERTRRVLDLFADSGSRVIRPQQPVDVLGSEGPAKVLGQVQNNVAVQYDHMVRGIGHDTGLESDQVCRLTERGICVRELLTLVFGDKALGAEHGDIRRGHTQDAGVL | not soluble
6 | MSQTVNIVGAGLAGSEAAYQLAQRGIKVNLIEMRPVKQTPAHHTDKFAELVCSNSLRGNALTNGVGVLKEEMRRLDSLIISAADKARVPAGGALAVDRHDFSGYITETLRNHPNVTVINEEINSIPEGYTIIATGPLTTENLAKEIVDITGKDQLYFYDAAAPIIEKESIDMDKVYLKSRYDKGEAAYLNCPMTEEEFNRFYDAVLEAEVAPTNEFEKEKYFEGCMPFEVMAERGRKTLLFGPMKPVGLEDPKTGKRPFAVVQLRQDDAAGTLYNIVGFQTHLKWGAQKEVIRLIPGLENVDIVRYGVMHRNTFINSPDVLNEKYELIKEDRIQFAGQMTGVEGYVESAASGLVAGINLAHKLLDKGEVIFPRETMIGSMAYYISHAKNEKNFQPMNANFGLLPSLEKRIKDKKERYEAQANRALEYLENYKKTLLEHHHHHH | soluble
7 | GHPTLKTPESVTGTWKGDVKIQCIYDPLRGYRQVLVKWLVRHGSDSVTIFLRDSTGDHIQQAKYRGRLKVSHKVPGDVSLQINTLQMDDRNHYTCEVTWQTPDGNQVIRDKIIELRVRK | soluble
8 | MLCFFDPGNFDIGDSVNDVEVKFNRAWTSVIGTKIDFAEKYSINIEGYYKYVFDRGYITADTSTGTITPSFNFDGVGKVWGFDIQLQKLESRYWDGWISYTYTWAKYNDPSGGNNGISNGSTNTINDSWYYPSFHRFHNFNLVLNIKPLLWFNIALRFGFASGQPRRRIDNKIYPYPVLIVNEDNEMVILQKYRRNSWYDENERTPWSFPLDIKFSFFPVNKNGRTSMEIYAAGENMMSLFYSPPGRTTFNQYTGKEDQGSSSGSFDLPIPMVSFGIKWRY | not soluble
9 | MNITFKFNFMSYKHYFSPKHKPEITQAITITEPAIIFRLNKTYSTNLSQQEIYDITRSDWILGHRREKAEYGFAAFKGVVLQVYRIDRWDFSGKVTDVGRQRWFFEGKVATEMQDYINGNISHYFKKGDRSPTKYLNCLEHHHHHH | not soluble
10 | MAHHHHHHMRNIVQKYLQRNSTKLFNRTSVFNLYKKCNFSGYKIYSDGLVHSEFSTELKTVNEVIKMPIYRILDTNGHLLDGHEAPFKDEEVLKIYKDMVEFSIWDEIFYGIQRQGRISFYIVNEGEEGLQFGMGKALSVDDHLYCQYRETGVLLSRGFTYTDILNQLFGTKYDEGKGRQMCICYTKKDLNIHTITTPLGSQLSHAAGCGYALKLKNQKAVAVTYCGDGSSSEGDFYAALNFASVRQSQTMFVCKNNLYAISTSIKDQYRGDGIAPRALALGIESIRVDGNDLFASYLATKKLRDICIQESKPVFIEFMSYRYGHHSTSDDSSLYRPKEENEAWRQEGVHPISRIFLYLKNKNLYSEKEDQEHRKSVKENVLKELKKYESVKRYNIVGGLFEDVYHEEDWNIKEQRENFEQFFKENKHNYDTSKFER | soluble
11 | NKDWTLAIRGNITYNKDKWIEGELPEQRYDWMNQYGQNILGKKGYIAEGLFTQAEIDDMARWESLSQANKATTPKPFASQFGTVKAGDIKYKDLNNDGQIDAYDKTYICRGDVPTMVYGFGFTLGWKNLSLGMMFQGTHDAERIMSGSSIQPFNGGGGSGNLYSNIDDRWTEDNPNQNAFYPRLSYGAETSSNINNFQPSTWWVRDFSFLRLKTMQISYNLPKDWVNKVRLKNAAVYVMGTNLFTLSKFKLWDPELNTDNGASYPNTTSYSVGVNFTF | not soluble
12 | AIATSDITSGFAAVATALEHEGQLRERLRLQRDELDVAVRSLETQLSRLHYEVDWSDAVAGARQQLRTIGSGFLELQSLVPEGMFYKYNDLWRQCSIHIVQSCLLIRFFETVHAPGPQFSDNLDQSQANDSVETCTAALVTKDEVLEMLDGEKAPTQPALRLDLEEYLLGLCGGIQELARLAANRVVLGDYATPRKLAFFCNQVYAGFRLLNFRNDSLRRSYDALKYAIQRLDSILYDLRIRKLS | soluble
13 | AHHHHHHGSVKFCPKCGSIMIPDRRRGVFVCRKCGYEEPINPEDTKAYRRTEEVKHRPDEGVVVIEQEVSTLPTAKVTCPKCGHNEAWWWELQTRAGDEPSTIFYKCKKCGYVWRSYE | soluble
14 | MGSDKIHHHHHHMLSRPVRILIADEIGLGKTIQALAIARYLELQGEAKKILILVPKILREQWKQEIRRLGGKPVVITNGSEVERKLLRKATFNNAAEYFVVSIDLAKSQNHSEKFSAIDWDLLIVDEVHNVTYNTQRYNFLKSLIEKSKEDLNIVFLSATPHRGNPKDYIERLRLLDPTLTADWNALDSEKFYRRTHGVLVFRRTKKVVNDLEKREIFKKCDFNAVIVDITEEEKRFFEELDEVLFEMVKDVHMNSPVALLAVLLRKRAASSYESALKTINNIIKNQYSGASGEDVLEDQIKQIFGLGYDEMELEENSEIDDLISSIINSVAKRYPLDKGQINALEKILKIGKAIGKNDSKLKTLAEVLAYHLKKNEKVIVFTEFKDTLEYLRNNLPTLLEQEGIHLSEEKDISVLHGGMKSEEIEKQVEKFANDGKLLISTDVASEGLNLQVANILINYEIPWSPIKLEQRVGRIWRLNQTKETIAYTLLLNHEADLQILESLYQKILNITDAVGTGPNVGKPVFGTRTLSGNFEYRLENVQDEETSDSPVSEFELMLSAIKRRNLDEQTKRIISTLKSLRTKIEEVVPLNTCNEIQEELNSVLLPDDMESEIVFEKLKKYISVFENSFINSIGSYLFKILTDRIHEPLLNEKCLKIAVKNESKEYRLFQVEVIDRGRKIYEYPVLIEIGGNVSPQLYRGTSLLEKLADVFSKEWFVIEWANPKEKMDIQTAKLIDRSAKDLQSIMDKHTDYDIKLNESLMKTDSLFRRLNTRSSEILRVEGLSDREFSVFKLLHPSILEILGLSLDSIELPPSDYEKWMERSFVPLEDILESERKAMEIVMDIEKKRLIEKYGESSDWKVEDVSLKEHYDIKVSEPEGEKYIEVKGHKPLWLSAELTAAEHRFANDNRDRYWIYIVSNLGGKKPVILKIFSPFDDEKRKIYLVHENKDIDITEIFGSTIKTKQRYVISLGQKIYRRR | not soluble
15 | MNRISTSSVNSSFNYTAPTEEAQNRFASAPDNSPLVVTTTSIAQASEGLQRPGATLSMQAQRLRQLMGSPSEQCRRDTMLAKAFDAQRLNINTQAGSSNSPHLNALNTLQQRHFKPAAGGLEIPVTSNSLLGGGRQVYQIGSSSRELSHRPVNDQDRAPFRALERLHAELFRGGPIEFVPRGSNVLASNVRDVDMDEFDVINSKDGCQGIGTTGLGPCIAVCARGMDREGLPVLGVYHHSGIGSPEDTMATLDQAMRDKGALQIKYSLVGGMIMPKEEEAGSYDDEQSFLALKGSYSIEGARLHVSEGEEDVHTGEDNSVNVLLMPDRVLYGRDTLYC | not soluble
16 | MAHHHHHHMSATPSNVLLGLFDGYMSHKRDQLTSETKLGGTPTYFPPLSDADKAQIRRWTSCGVCGHAMSLLTQAYSPLPTAPASRPHHRMVYVFGCNSGYCSRQPTSSMVAFSVQVDQEDEQALAENAEEEDEDEVIETGPLLPSELPEAVLPPCYVYIDAEPSKEAVVPTDIERELIKMAEENARSTVTDEELQQLEQTVDLKDTKTDYYYEKFRSRVARAPNQVLRYYERTVAAAAATSASLRAKDVKPIFMNPDKVKAMVTIPACACCGSTQTAELQVMPTSLYYLHVSEYTALARADAAAMAAPAGTLAAASTHSNVVDTQSPVASPSASTTTCKASALSGAATGTEKAIPANVDDGCDFGTITVYVCAKDCAARQHGVVLRRETLCVEEAPTMRDEERAGKADAAKAGTDGATHKVTLRELLHGNGEGGEDMEDDDEGHIDDEAVSTA | soluble
17 | MAHHHHHHMIVKVFDYIYISNVYNANDIYELIKLNIGGVLTCFDCTCIEWCHHNDTNVTNKIFYKDIFVNTKKDLIKCDVPIITNKSVNSDIIGGTHQINNYYNEQNNNYHDNTYKEFTQTHKTNIDPSQIKSDHINEERKEHYDYIIFPSDIINNTQCNNNNLKDYIKSMLILKEDAYIDFDVIHMD | not soluble
18 | MAHHHHHHMSSSAEEKEAKKQEELRLAGSDSEGVRAAVKAQRELKKKRDALRKVQKKIRSGGSDAEVAAAIEQEAALLAEIGHLEALRGASSAPSTAHVAAASFTSTPATAAASPGALVTVATNKSSGAKAARSGEPAKEITAEERAASAKRLHDLVQGAMDANRLKCLHVLPRDAVVHPRIAEVAVLMEQMLLVGGSARALALISAFRELSRTTTVLAVPSLNEVNTTAFEKLIQINFDFVRRKREASAGMRHVKDVLVRRFVALRDEVIHPKPNMVDLIKDLGGPREVTLKILDAIEAELKMSFKSIVEDRSLPYVSSSDTILVFGRSSLVEYILLSRSRDPQCKPKRVIVIDSAPLFEGRQLAEKLSSAGIDVTYGLITACCTLMPKCTRVFMGASAVLQNGDMFGRCGMALVAACAKLFRKPVLCFSESYKFVPEVWVGNLAQNTKLADMRPAAEVHGSDTGTHSPLVYPTPPTLSPPQLRASGGWGTPARGADFLTRSGGGGAVPFSSSASGYLYDLTPASYIDMIICEMGCLHTSAIVAAIKDREGRDTSQLLNLVRG | soluble
19 | MEGSVSEFLTVRLSSQKEADIPWLVWSAEQQEVIASGQVAGWEALHEIESYADQRSVVVLLAASDLILTSVEIPPGASRQLENMLPYLLEDEIAQDVEDVHFCVLSKGRETADVVGVDRLWLRACLDHLKACGFDVKRVLPDVLAIPRPEHGLAALQLGDEWLVRKSTTQGMAVDAQWLSLLAASDWVQNEGEYLPLQALTPLPELSLAETQEWRYEPSGLVMQLLTQEALTSKFNLLTGSFKLKSLEHHHHHH | soluble
20 | MSTKEIICTLKGQFFLSPREEKFLRLLEEMGIPEEDIQEGIRECLKSVSPKKRKNFPLFKCFSKILEVNKVRALERGKREHLDWKRVFERKVSVVKHLLDFNYTEPKTEEEAEKTLQEIERKIFKKLWENLDKERKREIYNKYKEVKEDEELFKELIKHELRKIFQIPVLSLYVD | not soluble
